{
  "source": "the DeepSol protein solubility set",
  "data": [
    {"assay": "soluble on expression in E. coli; label from the status in PepcDB or PDB records", "values": [
      {"sequence": "MSCALLIENLTCQYDAQTVLKSLSLQVNPGEIVCLLGASGCGKTTLLKAIAGLLPLASGQLSLNCVTLDDGKRWLPPEQRNIGMIFQDYALFPHLTVAQNVGFGLDAMPAKQKEAKIAEMLALVHLDAFAERYPHQLSGGQQQRVAIARALAYKPDLLLLDEPFSNIDTQVRHELIIEIRKIFKQQGVTAIFVTHSREEAFAFADKMAVMNRGVIEQYGTAAELYYQPSSQFVADFLGGGSYLSAKRISETQYQTALGVVEAIARQPIAVEAECKLLLRPQQVQIRAEEESSVTVTEQQFMGDHCRYLIDAHGTQLIATSSQPLELGQAVSVNIDTQGVLAFA", "soluble on expression in E. coli": "not soluble"},
      {"sequence": "MSARMDNDTAALLERIRSDWARLNHGQGPDSDGLTPSAGPMLTLLLLERLHAALGREIERTYAASGLNAAGWDLLLTLYRSAPPEGLRPTELSALAAISGPSTSNRIVRLLEKGLIERREDERDRRSASIRLTPQGRALVTHLLPAHLATTQRVLAPLSAQEQRTLEELAGRMLAGLEQGV", "soluble on expression in E. coli": "soluble"},
      {"sequence": "MGSDKIHHHHHHLPALPHIPIPVNFEEYCQQKAAPPGSSTYYALRQAPAASQPLLTALFALRREFEETVKETSDPTIGRTKLAWWQNEIAALASDSPSHPVSKALAAYLPDVKTEYPALQTLLAGFEMDLDQARYLDYPNLRRYVQGVGGTFASLVARATAKDAAQASNWSAPLGEALMLAQFVVETGHDARHGRIYIPIDEMQRFNVTAADLINRKYTEAFTELMRFETKRARDALQSALGAVPGSERRTQRTLVAQAALASALLDEIERDGYHVLHQRIALTPIRKLWIAWRAK", "soluble on expression in E. coli": "not soluble"},
      {"sequence": "GSHMAITGTIAAIATAIVPQQGSVGIVRVSGSQAIAIAQTLFDAPGKQVWESHRILYGYIRHPQTRQIVDEALLLLMKAPRSYTREDVVEFHCHGGIIAVQQVLQLCLESGARLAQPGEFTLRAFLNGRLDLTQAESIADLVGARSPQAAQTALAGLQGKLAHPIRQLRANCLDILAEIEARIDFEEDLPPLDDEAIISDIENIAAEISQLLATKDKGELLRTGLKVAIVGRPNVGKSSLLNAWSQSDRAIVTDLPGTTRDVVESQLVVGGIPVQVLDTAGIRETSDQVEKIGVERSRQAANTADLVLLTIDAATGWTTGDQEIYEQVKHRPLILVMNKIDLVEKQLITSLEYPENITQIVHTAAAQKQGIDSLETAILEIVQTGKVQAADMDLAINQRQAAALTQAKMSLEQVQATITQQLPLDFWTIDLRGAIQALGEITGEEVTESVLDRIFSRFCIGK", "soluble on expression in E. coli": "soluble"},
      {"sequence": "MGSDKIHHHHHHMITQINIENFKCFSKKNMPVGALTMLTGFNAAGKSTALQALLLISQMVSGRHGDVSAALNGELVRMGTPGDVLRSDGSKEIKIGIETVEQKIQWTLVPSINLNNSLDLKDIHWASPNGVGDLTNISCNTSFNGLTPNEAPSDLSNLANEISDLIFISAVRMGTQDVYPSPTEPSPIRANVGMRGDYAPWWYEQHLDYEIDQKRVHSSEKALTLRRQLNAWLDQLFPGAEANAQKLPNTDLIQLLFRNSKTDVWRKPANIGYGLTYAFPILVAGLLARPGQLLIIDSPEAHLHPLGQSNMGKFLAKIAASGVQVLVETHSDHVLNGARLAVKSRVIDSRDVGILFFNRPPQKDGDPEHIIAPSIDKEGNLSDWPLGFFDQAENDLAVLADWG", "soluble on expression in E. coli": "not soluble"},
      {"sequence": "MILVVDNYDSFTYNLVDIVAQHTDVIVQYPDDDNVLNQSVDAVIISPGPGHPLDDQQLMKIISTYQHKPILGICLGAQALTCYYGGEVIKGDKVMHGKVDTLKVISHHQHLLYQDIPEQFSIMRYHSLISNPDNFPEELKITGRTKDCIQSFEHKERPHYGIQYHPESFATDYGVKIITNFINLVKEG", "soluble on expression in E. coli": "not soluble"},
      {"sequence": "SNFLEIDIFNPQTVGVGRARFTTYEVRMRTNLPIFKLKESCVRRRYSDFEWLKNELERDSKIVVPPLPGKALKRQLPFRGDEGIFEESFIEERRQGLEQFINKIAGHPLAQNERCLHMFLQEEAIDRNYVPGK", "soluble on expression in E. coli": "soluble"},
      {"sequence": "MIATTSQQSFNLLRTLAVQKASDFADEFYIYMLKDQEASLFLSSQQVHDRLHGSMSKWIADILTNTGDSLADLINHQKKIGQIHARIGIPVDLVERGARRLKWHLYEHIAQVADDKALCFDAMRFASISMDIAIEIMSKTYSQSHDLEHHHHHH", "soluble on expression in E. coli": "not soluble"},
      {"sequence": "MNEKKERIIKTSIRLFAKKGFAATTIQEIASECGISKGAFYLHFKSKEALLLSACEYYIGMSMNKMKNIEEDLAGKPPKEVLKKQIGAQFEDFRDHKDFIVLLLTENIIPENQEIKQYFYKVTMETDKLYRNALLVSYGEGIERYVADLSIMARGIVHSYMNVMVFNGELNIDAEEISAFIIERLDDLVQGLSRSALNPIVSKDIFNPMPAGKDQLLEDIQKVKENSTLPEDITVSLDVIEEELTQDKPRKPIIKGMLSNLAGTNDKEVERLRALILSLSQFDHKKSSL", "soluble on expression in E. coli": "not soluble"}
    ]}
  ]
}
